Measured values from paper PMC4005659, “TcaR–ssDNA complex crystal structure reveals new DNA binding mechanism of the MarR family proteins”.

Target: TcaR (Staphylococcus epidermidis RP62A (ATCC …, UniProt A0A0H2VJZ8 1-151))
Assay: X-ray crystallography; 1:1 TcaR dimer:ssDNA; 40% ethylene glycol, 0.1 M Tris pH 7.0; 3.6 A; EMSA: 20 mM Tris-HCl pH 8.0, 150 mM KCl, 0.1 mM MgCl2, 0.05 mM EDTA, 12.5% glycerol, 0.1 mM DTT, 1 mg/ml BSA, 15 min, room temperature; ssDNA 12 uM, TcaR 2-24 uM
Conditions: protein: recombinant; tags: N-terminal His6; chain copies: 2; single strand

CGCAGCGCGCAGCCCTA (ssDNA) [17-mer GC-rich ssDNA]
binding result: binds
